Experimental data reported in paper PMC12775124, “CUL4A-DDB1-DCAF10 is an N-recognin for N-terminally acetylated Src kinases” (Nature Communications, 2026).

T1: GST-DCAF10 (UniProt Q5QP82 1-559)
T1 construct: DCAF10, full length; the UniProt entry is printed for the AlphaFold 3 model of the same protein; cloning and purification are in the Supplementary Methods; also called purified full-length GST-DCAF10; source: purified
T1 sequence (looked up): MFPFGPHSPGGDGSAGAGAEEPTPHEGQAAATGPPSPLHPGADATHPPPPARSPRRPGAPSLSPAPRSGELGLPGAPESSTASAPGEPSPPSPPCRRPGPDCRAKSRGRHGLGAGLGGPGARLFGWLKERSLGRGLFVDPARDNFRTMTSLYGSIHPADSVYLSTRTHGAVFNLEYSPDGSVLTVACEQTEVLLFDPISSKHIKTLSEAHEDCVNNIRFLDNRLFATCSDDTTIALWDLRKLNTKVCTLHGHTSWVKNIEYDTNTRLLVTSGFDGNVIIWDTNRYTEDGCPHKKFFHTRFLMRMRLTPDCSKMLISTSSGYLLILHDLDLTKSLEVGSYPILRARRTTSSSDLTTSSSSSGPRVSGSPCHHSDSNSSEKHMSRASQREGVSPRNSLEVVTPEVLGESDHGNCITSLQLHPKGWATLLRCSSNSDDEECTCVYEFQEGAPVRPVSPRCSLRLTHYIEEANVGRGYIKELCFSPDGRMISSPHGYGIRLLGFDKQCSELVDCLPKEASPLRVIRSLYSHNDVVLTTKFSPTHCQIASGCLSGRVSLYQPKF

T2: Ac-Lyn^G2A peptide (human, UniProt P07948 2-11, G2A)
T2 construct: Lyn, N-terminal 10-mer without the initiator Met, G2A; Lys3 spacer that carries the C-terminal biotin; also called Ac-Ala peptide; source: synthetic peptide
T2 peptide: Ac-ACIKSKGKDSKKK-biotin

B1: Nt-acetylated Src peptide (peptide)
peptide: Ac-GSNKSKPKDAKKK-biotin
notes: Src, N-terminal 10-mer without the initiator Met; Lys3 spacer that carries the C-terminal biotin; also called Nt-Ac Src; Ac-Src; source: synthetic peptide
B2: Nt-acetylated Lyn peptide (peptide)
peptide: Ac-GCIKSKGKDSKKK-biotin
notes: Lyn, N-terminal 10-mer without the initiator Met; Lys3 spacer that carries the C-terminal biotin; also called Nt-Ac Lyn; Ac-Lyn; source: synthetic peptide

How the values were obtained:
GST-DCAF10 = target: T1, GST-DCAF10; experiment: pull-down; Nt-peptides bound to streptavidin beads incubated with purified GST-DCAF10 or GST alone; Western blots against GST, DCAF10 and streptavidin; n = 3; conditions: both partners purified
[1] = target: B2; experiment: affinity purification with mass spectrometry; biotinylated 10-mer Nt-peptides on magnetic streptavidin beads incubated with HeLa lysate; retained proteins digested on bead and quantified label-free by LC-MS (DIA); pairwise comparison of two peptides; n = 3; conditions: one partner purified
Ac-Lyn^G2A peptide = target: T2, Ac-Lyn^G2A peptide; experiment: as above; conditions: one partner purified
[2] = target: B1; experiment: as above; conditions: one partner purified

binding result (GST-DCAF10)	fold stronger than Ac-THOC7 [1] [fold]	fold lower than the Ac-Gly peptide (Ac-Lyn^WT) (Ac-Lyn^G2A peptide) [fold]	log2 fold change (Nt-Ac against Nt-free Src peptide, Fig. 1c) [2] [log2]	Binder
binds	–	–	–	B1
binds	–	–	–	B2
binds	–	–	–	Ac-GCVQCKDKEAKKK-biotin (cysteine pairing not given here, Fyn, N-terminal 10-mer without the initiator Met; Lys3 spacer that carries the C-terminal biotin; also called Nt-Ac Fyn; Ac-Fyn; source: synthetic peptide) [Nt-acetylated Fyn peptide]
–	~57	15	~5	DDB1- and CUL4A-associated factor 10 (natural protein, human (endogenous in HeLa and DLD-1), UniProt Q5QP82 1-559, looked up, DCAF10, endogenous protein of human cell lysates; also called DCAF10; WDR32; source: endogenous, HeLa lysate; endogenous, DLD-1 Lyn KO Flp-In T-REx cell lysate) MFPFGPHSPGGDGSAGAGAEEPTPHEGQAAATGPPSPLHPGADATHPPPPARSPRRPGAPSLSPAPRSGELGLPGAPESSTASAPGEPSPPSPPCRRPGPDCRAKSRGRHGLGAGLGGPGARLFGWLKERSLGRGLFVDPARDNFRTMTSLYGSIHPADSVYLSTRTHGAVFNLEYSPDGSVLTVACEQTEVLLFDPISSKHIKTLSEAHEDCVNNIRFLDNRLFATCSDDTTIALWDLRKLNTKVCTLHGHTSWVKNIEYDTNTRLLVTSGFDGNVIIWDTNRYTEDGCPHKKFFHTRFLMRMRLTPDCSKMLISTSSGYLLILHDLDLTKSLEVGSYPILRARRTTSSSDLTTSSSSSGPRVSGSPCHHSDSNSSEKHMSRASQREGVSPRNSLEVVTPEVLGESDHGNCITSLQLHPKGWATLLRCSSNSDDEECTCVYEFQEGAPVRPVSPRCSLRLTHYIEEANVGRGYIKELCFSPDGRMISSPHGYGIRLLGFDKQCSELVDCLPKEASPLRVIRSLYSHNDVVLTTKFSPTHCQIASGCLSGRVSLYQPKF
